Patent US20160250307A1 (IMMATICS BIOTECHNOLOGIES, published 2016)
Square brackets hold non-standard residues; d marks the D form. Ends that are not written are not given here. pS = N[C@@H](COP(=O)(O)O)C(=O)O

B1: RVAS*PTSGV (peptide)
peptide: RVA[pS]PTSGV
notes: phosphopeptide from IRS2
B2: SLFSSPPEI (peptide)
peptide: SLFSSPPEI
B3: TLFEHLPHI (peptide)
peptide: TLFEHLPHI
B4: AMAEMKVVL (peptide)
peptide: AMAEMKVVL
B5: GQFPSYLETV (peptide)
peptide: GQFPSYLETV
B6: QLIDYERQL (peptide)
peptide: QLIDYERQL
B7: KLISSYYNV (peptide)
peptide: KLISSYYNV
B8: GLFAPVHKV (peptide)
peptide: GLFAPVHKV
B9: KMFESFIESV (peptide)
peptide: KMFESFIESV
B10: VLYPSLKEI (peptide)
peptide: VLYPSLKEI
B11: SVLDQKILL (peptide)
peptide: SVLDQKILL
B12: ILDDNMQKL (peptide)
peptide: ILDDNMQKL
B13: YLGEGPRMV (peptide)
peptide: YLGEGPRMV
B14: YIFTTPKSV (peptide)
peptide: YIFTTPKSV
B15: SLLEKAGPEL (peptide)
peptide: SLLEKAGPEL
B16: FLWERPTLLV (peptide)
peptide: FLWERPTLLV
B17: KLDAFVEGV (peptide)
peptide: KLDAFVEGV
B18: VLFQEALWHV (peptide)
peptide: VLFQEALWHV
B19: KLNDLIQRL (peptide)
peptide: KLNDLIQRL
B20: YLGPHIASVTL (peptide)
peptide: YLGPHIASVTL
B21: YLLHFPMAL (peptide)
peptide: YLLHFPMAL
B22: FLLGFIPAKA (peptide)
peptide: FLLGFIPAKA
B23: TLFYSLREV (peptide)
peptide: TLFYSLREV
B24: YLLEKFVAV (peptide)
peptide: YLLEKFVAV
B25: SLLESNKDLLL (peptide)
peptide: SLLESNKDLLL
B26: SLAEEKLQASV (peptide)
peptide: SLAEEKLQASV
B27: LLHGHIVEL (peptide)
peptide: LLHGHIVEL
B28: SLLNFLQHL (peptide)
peptide: SLLNFLQHL
B29: ALRGEIETV (peptide)
peptide: ALRGEIETV
B30: RLYDPASGTISL (peptide)
peptide: RLYDPASGTISL
B31: ALLGGNVRMML (peptide)
peptide: ALLGGNVRMML
B32: RVQEAIAEV (peptide)
peptide: RVQEAIAEV
B33: VLLAQIIQV (peptide)
peptide: VLLAQIIQV
B34: SLFQGVEFHYV (peptide)
peptide: SLFQGVEFHYV
B35: GLLDNPELRV (peptide)
peptide: GLLDNPELRV
B36: ATLNIIHSV (peptide)
peptide: ATLNIIHSV
B37: AILETAPKEV (peptide)
peptide: AILETAPKEV
B38: ALDPKANFST (peptide)
peptide: ALDPKANFST
B39: YIQDEINTI (peptide)
peptide: YIQDEINTI
B40: ILSGIGVSQV (peptide)
peptide: ILSGIGVSQV
B41: VLDEPYEKV (peptide)
peptide: VLDEPYEKV
B42: ALADVVHEA (peptide)
peptide: ALADVVHEA
B43: FLLEQPEIQV (peptide)
peptide: FLLEQPEIQV
B44: SLFGQDVKAV (peptide)
peptide: SLFGQDVKAV
B45: SLLSGRISTL (peptide)
peptide: SLLSGRISTL
B46: ALYGKTEVV (peptide)
peptide: ALYGKTEVV
B47: SLQESILAQV (peptide)
peptide: SLQESILAQV
B48: KLLDLSDSTSV (peptide)
peptide: KLLDLSDSTSV
B49: YLMEGSYNKV (peptide)
peptide: YLMEGSYNKV
B50: ALADKELLPSV (peptide)
peptide: ALADKELLPSV
B51: TLAELGAVQV (peptide)
peptide: TLAELGAVQV
B52: VVLDGGQIVTV (peptide)
peptide: VVLDGGQIVTV
B53: QQLDSKFLEQV (peptide)
peptide: QQLDSKFLEQV
B54: ALNENINQV (peptide)
peptide: ALNENINQV
B55: ILNVDGLIGV (peptide)
peptide: ILNVDGLIGV
B56: TLQDHLNSL (peptide)
peptide: TLQDHLNSL
B57: SLDGKAALTEL (peptide)
peptide: SLDGKAALTEL
B58: GLLAGDRLVEV (peptide)
peptide: GLLAGDRLVEV
B59: SLAEGTATV (peptide)
peptide: SLAEGTATV
B60: FLEETKATV (peptide)
peptide: FLEETKATV
B61: GLFNAELLEA (peptide)
peptide: GLFNAELLEA
B62: TLMDMRLSQV (peptide)
peptide: TLMDMRLSQV
B63: ALLEENSTPQL (peptide)
peptide: ALLEENSTPQL
B64: ALLRVTPFI (peptide)
peptide: ALLRVTPFI
B65: ALLAEGITWV (peptide)
peptide: ALLAEGITWV
B66: ALFPALRPGGFQA (peptide)
peptide: ALFPALRPGGFQA
B67: ALANQKLYSV (peptide)
peptide: ALANQKLYSV
B68: RTIEYLEEV (peptide)
peptide: RTIEYLEEV
B69: VLPNFLPYNV (peptide)
peptide: VLPNFLPYNV
B70: ALIEGAGILL (peptide)
peptide: ALIEGAGILL
B71: SLMGPVVHEV (peptide)
peptide: SLMGPVVHEV
B72: YQMDIQQEL (peptide)
peptide: YQMDIQQEL
B73: LLDDSLVSI (peptide)
peptide: LLDDSLVSI
B74: LLLPLLPPLSP (peptide)
peptide: LLLPLLPPLSP
B75: SLLHTIYEV (peptide)
peptide: SLLHTIYEV

What follows are binders tested against HLA-A*02 (human) (assay: UV-ligand exchange, anti-b2m ELISA; grade: exchange yield >=50%).
For B1, the peptide exchange yield was 50 to 75%. With B2 the peptide exchange yield was 50 to 75%. In the case of B3, the peptide exchange yield is reported as 50 to 75%. With B4 the peptide exchange yield was 50 to 75%. B5 was tested, and the peptide exchange yield was 50 to 75%. Binder B6 has a peptide exchange yield of 50 to 75%. In the case of B7, the peptide exchange yield is reported as 50 to 75%. In the case of B8, the peptide exchange yield is reported as 50 to 75%. B9 gave a peptide exchange yield of 50 to 75%. B10 showed a peptide exchange yield of 50 to 75%. With B11 the peptide exchange yield was 50 to 75%. Work on B12 yielded a peptide exchange yield of 50 to 75%. For B13, the peptide exchange yield was 50 to 75%. With B14 the peptide exchange yield was 50 to 75%. For B15, the peptide exchange yield was 50 to 75%. B16 gave a peptide exchange yield of 50 to 75%. B17 gave a peptide exchange yield of 50 to 75%. Work on B18 yielded a peptide exchange yield of 50 to 75%. B19 was tested, and the peptide exchange yield was 50 to 75%. For B20, the peptide exchange yield was 50 to 75%. For B21, the peptide exchange yield was 50 to 75%. With B22 the peptide exchange yield was 50 to 75%. B23 was tested, and the peptide exchange yield was 50 to 75%. Work on B24 yielded a peptide exchange yield of 50 to 75%. Work on B25 yielded a peptide exchange yield of 50 to 75%. Binder B26 has a peptide exchange yield of 50 to 75%. B27 showed a peptide exchange yield of 50 to 75%. In the case of B28, the peptide exchange yield is reported as 50 to 75%. B29 showed a peptide exchange yield of 50 to 75%. B30 gave a peptide exchange yield of 50 to 75%. B31 gave a peptide exchange yield of 50 to 75%. Binder B32 has a peptide exchange yield of 50 to 75%. Work on B33 yielded a peptide exchange yield of 50 to 75%. Binder B34 has a peptide exchange yield of 50 to 75%. B35 gave a peptide exchange yield of 50 to 75%. Binder B36 has a peptide exchange yield of 50 to 75%. B37 gave a peptide exchange yield of 50 to 75%. In the case of B38, the peptide exchange yield is reported as 50 to 75%. B39 showed a peptide exchange yield of 50 to 75%. With B40 the peptide exchange yield was 50 to 75%. B41 was tested, and the peptide exchange yield was 50 to 75%. Binder B42 has a peptide exchange yield of 50 to 75%. With B43 the peptide exchange yield was 50 to 75%. B44 showed a peptide exchange yield of 50 to 75%. Binder B45 has a peptide exchange yield of 50 to 75%. In the case of B46, the peptide exchange yield is reported as 50 to 75%. B47 gave a peptide exchange yield of 50 to 75%. With B48 the peptide exchange yield was 50 to 75%. With B49 the peptide exchange yield was 50 to 75%. In the case of B50, the peptide exchange yield is reported as 50 to 75%. In the case of B51, the peptide exchange yield is reported as 50 to 75%. B52 showed a peptide exchange yield of 50 to 75%. B53 showed a peptide exchange yield of 50 to 75%. With B54 the peptide exchange yield was 50 to 75%. For B55, the peptide exchange yield was 50 to 75%. In the case of B56, the peptide exchange yield is reported as 50 to 75%. B57 was tested, and the peptide exchange yield was 50 to 75%. In the case of B58, the peptide exchange yield is reported as 50 to 75%. B59 gave a peptide exchange yield of 50 to 75%. B60 gave a peptide exchange yield of 50 to 75%. B61 was tested, and the peptide exchange yield was 50 to 75%. In the case of B62, the peptide exchange yield is reported as 50 to 75%. In the case of B63, the peptide exchange yield is reported as 50 to 75%. B64 gave a peptide exchange yield of 50 to 75%. In the case of B65, the peptide exchange yield is reported as 50 to 75%. B66 gave a peptide exchange yield of 50 to 75%. With B67 the peptide exchange yield was 50 to 75%. Work on B68 yielded a peptide exchange yield of 50 to 75%. B69 showed a peptide exchange yield of 50 to 75%. With B70 the peptide exchange yield was 50 to 75%. For B71, the peptide exchange yield was 50 to 75%. B72 gave a peptide exchange yield of 50 to 75%. Work on B73 yielded a peptide exchange yield of 50 to 75%. Binder B74 has a peptide exchange yield of 50 to 75%. B75 was tested, and the peptide exchange yield was 50 to 75%.
